According to patent US20230227539A1 (HIFIBIO HK, published 2023):
Positions count from the first letter of the chain named.

B1: Ab-4 (IgG1) (antibody, V domains shown)
VH: QITLKESGPTLVKPTQTLTLTCTFSGFSLSTSGVGVGWIRQPPGKALEWLALIYWDDDKRYSPSLKSRLTITKDTSKNQVVLTMTNMAPVDTATYYCAHRLSNFWSGYYTGWGQGTLVTVSS
VL: not shown
B2: Ab-2 IgG1 (antibody, V domains shown)
VH: EVQLVESGGGLIQPGGSLRLSCAASGFIVSSNYMSWVRQAPGKGLEWVSIIYSGGSTFYADSVKGRFTISRDNSKNTLYLQMNSLRVEDTAVYYCARDLQELGSLDYWGQGTLVTVSS
VL: DIQMTQSPSSVSASVGDRVTITCRASQGISSWLAWYQQKPGKAPKLLIYAASSLQSGVPSRFSGSGSGTDFTLTISSLQPEDFATYYCQEANSFPYTFGQGTKLEIKR
notes: also called 2A2A; C1S5-2A2A
B3: Ab-3 (IgG1) (antibody, V domains shown)
VH: QLQLQESGPGLVKPSETLSLTCTVSGGSISSTIYYWGWIRQPPGKGLEWIGSIYYSGNAYYNPSLKSRVTISVDTSKNQFSLMLNSVTASDTAVYYCATPHTRWGPDYWGQGTLVTVSS
VL: NFMLTQPHSVSASPGKTVTVSCTRSSGSIASNYVLWYQQRPGSAPTTVIYEDDQRPSGVPDRFSASIDSSSNSASLTISGLKTEDEADYYCQSYDGDNLVFGGGTKLTVLG
B4: Ab-1 (IgG1) (antibody, V domains shown)
VH: B3 VH with T32S, M83K, S90A
VL: B3 VL
B5: Ab-8 (antibody, V domains shown)
VH: B2 VH with S25P
VL: B2 VL
B6: Ab-9 (antibody, V domains shown)
VH: B2 VH with Y107C
VL: B2 VL
B7: Ab-6 (antibody, V domains shown)
VH: QVQLVQSGAEVKKPGASVKVSCKVSGYTLTELSMHWVRQAPGKGLEWMGGFDPEDGETIYAQKFQGRVTMTEDTSTDTAYMELSSLRSEDTAVYYCATGHQLLFYNWFDPWGQGTLVTVSS
VL: QSALTQPPSASGSPGQSVTISCTGTSSDVGGYNYVSWYQQHPGKAPKLMIYEVSKRPSGVPDRFSGSKSGNTASLTVSGLQAEDEADYYCSSYAGSNNLVFGGGTKLTVLG
B8: Ab-7 (antibody, V domains shown)
VH: EVQLVESGGGLVKPGGSLRLSCAASGFAFSSYTMNWVRQAPGKGLAWVSSISSSSDYIFYADSVKGRCTISRDNAKNSLSLQMNSLRAEDTAVYYCARGSNTAWGGVPDAFDFWGLGTVVTVSS
VL: B7 VL with G31R, A82T

The binders below were run against SARS-CoV-2 Spike S1, mFc tag spike protein (SARS-CoV-2, UniProt P0DTC2 16-685) (assay: not given).
B1 gave an IC50 of over 300 nM.
With B2 the IC50 was 3.78 nM.
With B3 the IC50 was 10.6 nM.
B4 was tested, and the IC50 was 11.1 nM.

What follows are binders tested against T1, SARS-CoV-2 Spike S1+S2 ECD, his Tag protein (SARS-CoV-2, UniProt P0DTC2 14-1213) (assay: ELISA (FIG. 6)).
T1 construct: extracellular domain
B5: binds.
B6: binds.
B7: binds.
B8: binds.

The binders below were run against T2, SARS-CoV-2 S protein on pseudotyped virus (wild type) (SARS-CoV-2, UniProt P0DTC2 14-1273) (assay: cell-based or functional assay).
In the case of B1, the “Pseudo-virus neutralization IC50” value is reported as over 300 nM and the “Pseudo-virus neutralization IC90” value is reported as over 300 nM.
In the case of B2, the “Pseudo-virus neutralization IC50” value is reported as 0.53 nM and the “Pseudo-virus neutralization IC90” value is reported as 4.76 nM.
For B3, the “Pseudo-virus neutralization IC50” value was 5.8 nM and the “Pseudo-virus neutralization IC90” value was 52.2 nM.
B4 was tested, and the “Pseudo-virus neutralization IC50” value was 4.07 nM and the “Pseudo-virus neutralization IC90” value was 36.6 nM.

Target: T2, SARS-CoV-2 S protein on pseudotyped …
Assay: cell-based or functional assay
Remark: another data set of the same source
With B2 the “Pseudo-virus neutralization (Test 1) IC80” value was 2.11 nM, the “Pseudo-virus neutralization (Test 2) IC50” value was 0.32 nM and the “Pseudo-virus neutralization (Test 2) IC80” value was 1.29 nM.
For B3, the “Pseudo-virus neutralization (Test 1) IC80” value was 23.2 nM, the “Pseudo-virus neutralization (Test 2) IC50” value was 2.61 nM and the “Pseudo-virus neutralization (Test 2) IC80” value was 10.4 nM.
For B4, the “Pseudo-virus neutralization (Test 1) IC80” value was 16.3 nM, the “Pseudo-virus neutralization (Test 2) IC50” value was 1.62 nM and the “Pseudo-virus neutralization (Test 2) IC80” value was 6.48 nM.

The binders below were run against T1, SARS-CoV-2 Spike S1+S2 ECD, his Tag … (assay: ELISA, coated S1+S2 ECD His).
For B1, the EC50 was 14.2 nM and the EC90 was 328 nM.
Work on B2 yielded an EC50 of 0.5 nM and an EC90 of 2.56 nM.
For B3, the EC50 was 0.5 nM and the EC90 was 9.36 nM.
Work on B4 yielded an EC50 of 0.53 nM and an EC90 of 6.03 nM.

These binders were tested against T1, SARS-CoV-2 Spike S1+S2 ECD, his Tag … (assay: binding to full-length S protein).
In the case of B2, the EC50 is reported as 0.55 nM.

The binders below were run against T1, SARS-CoV-2 Spike S1+S2 ECD, his Tag … (assay: ELISA on His-tagged S1+S2 ECD (FIG. 7)).
Binder B2 has an EC50 of 0.021 nM.

These binders were tested against T3, SARS-CoV-2 S1 protein (S1 fragment of the S protein) (SARS-CoV-2, UniProt P0DTC2 16-685) (assay: SPR negative control; as indicated by the domain ELISA).
T3 construct: domain: S1
B1: no binding.
